Tests used:
Experiment in all cases: native gel or EMSA
[1] = biological target: RshSTT200 S Foldon his (prefusion stabilized spike ectodomain) (sarbecovirus RshSTT200 (clade 1b) | bacteriophage T4)
[2] = biological target: Rs4081 S Foldon his (prefusion stabilized spike ectodomain) (sarbecovirus Rs4081 (clade 2) | bacteriophage T4)
[3] = biological target: Khosta-2 S Foldon his (prefusion stabilized spike ectodomain) (sarbecovirus Khosta-2 (clade 3) | bacteriophage T4)
[4] = biological target: Pang17 S Foldon his (prefusion stabilized spike ectodomain) (sarbecovirus Pang17 (clade 1b) | bacteriophage T4)
[5] = biological target: PRD-0038 S Foldon his (prefusion stabilized spike ectodomain) (sarbecovirus PRD-0038 (clade 3) | bacteriophage T4)
[6] = biological target: Rf1 S Foldon his (prefusion stabilized spike ectodomain) (sarbecovirus Rf1 (clade 2) | bacteriophage T4)
[7] = biological target: Btky72 S Foldon his (sarbecovirus BtKY72 (clade 3) | bacteriophage T4)
[8] = biological target: SARS-CoV S Foldon his (prefusion stabilized spike ectodomain) (SARS-CoV (clade 1a) | bacteriophage T4)

With “RshSTT200 S Foldon his (prefusion stabilized spike ectodomain) (domain or fragment)” the stoichiometry N [1] was 3.

In the case of “Rs4081 S Foldon his (prefusion stabilized spike ectodomain) (domain or fragment)”, the stoichiometry N [2] is reported as 3.

Work on “Khosta-2 S Foldon his (prefusion stabilized spike ectodomain) (domain or fragment)” yielded a stoichiometry N [3] of 3.

Substance “Pang17 S Foldon his (prefusion stabilized spike ectodomain) (domain or fragment)” has a stoichiometry N [4] of 3.

In the case of “PRD-0038 S Foldon his (prefusion stabilized spike ectodomain) (domain or fragment)”, the stoichiometry N [5] is reported as 3.

With “Rf1 S Foldon his (prefusion stabilized spike ectodomain) (domain or fragment)” the stoichiometry N [6] was 3.

Work on “Btky72 S Foldon his (domain or fragment)” yielded a stoichiometry N [7] of 3.

In the case of “SARS-CoV S Foldon his (prefusion stabilized spike ectodomain) (domain or fragment)”, the stoichiometry N [8] is reported as 3.

From article PMC11068555
